Data from US20230322908A1 (AC IMMUNE, published 2023).
Where no end group is shown, it is not given here.

T1: Biotinylated TP-73 peptide (aa 181-190 of SEQ ID NO:1) (human, also: biotinylated (position not given here))
T1 construct: Immobilized on a streptavidin (SA) sensor chip
T1 peptide: KQSQDEPLRS

T2: TP-51 peptide (aa 352-414 of SEQ ID NO:1) (human)
T2 construct: Synthetic peptide (Pepscan)
T2 peptide: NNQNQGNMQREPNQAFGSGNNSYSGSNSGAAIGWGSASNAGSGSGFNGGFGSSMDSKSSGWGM

B1: ACI-7069-642D12-Ab1 (antibody, mouse IgG2b, V domains shown)
VH: EVQLQQSGAELVKPGASVRLSCTASGFNIKDPYMHWVRQRPKQGLEWIGRIDPADGNTKYDPKFQGKATLTADTSSNVAYLHLSSLTSEDTAVYYCARFYGSSHWYFDVWGAGTTVTVSS
VL: DIKMTQSPSSMYASLGERVTITCKASQDIKRYLSWYQQKPWKSPKILIYYATSLADGVPSRFSGTGSGQDYSLTISSLESDDVATYYCLQQGESPYTFGGGTKLEIK
notes: Mouse IgG2b, kappa, from hybridoma; also called 642D12B4
B2: ACI-7069-633B12-Ab1 (antibody, mouse IgG2b, V domains shown)
VH: EVQLQQSGPELVKPGASVKISCKTSGFTFTEYSMHWVKQSHGKSLEWIGGINPNNGGTSYNQKFKGKATLTVDKSSSTAYMELRSLTSEDSAVYYCARESWGQGTTLTVSS
VL: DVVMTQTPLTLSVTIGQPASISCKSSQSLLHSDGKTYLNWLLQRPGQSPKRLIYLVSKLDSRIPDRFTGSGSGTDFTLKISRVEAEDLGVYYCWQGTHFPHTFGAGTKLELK
notes: Mouse IgG2b, kappa, from hybridoma; also called 633B12C8

Columns and labels:
[1] = target: T3, recombinant human full-length TDP-43 (TAR DNA-binding protein 43), soluble (human, UniProt Q13148 1-414); experiment: indirect ELISA, coated FL TDP-43
T3 construct: Used on Luminex beads, coated on ELISA plates, and immobilized or injected in SPR; also called FL TDP-43; TDP-43 protein
Description: Antibody binding to human FL TDP-43 was determined using an indirect ELISA. ELISA plate coating with 1 µg/ml human FL TDP-43 was performed overnight in carbonate buffer at 4° C. Plates were washed with 0.05% Tween-20/PBS and then blocked with 1% bovine serum albumin (BSA) in 0.05% Tween-20/PBS for 1 hour at 37° C. Antibodies purified from hybridoma supernatants were then added in a 3-fold serial dilution starting at 1 µg/ml, and incubated for 2 hours at 37° C. after which the plates were washed. An AP-conjugated anti-mouse IgG secondary antibody (Jackson Immunoresearch Laboratories, United Kingdom) was added at 1/1000 dilution in 0.05% Tween-20/PBS for 1 hour at 37° C. After the final wash, plates were incubated with pNPP (Sigma-Aldrich, Switzerland) phosphatase substrate solution, and read at 405 nm using an ELISA plate reader (Tecan, Switzerland).

[2] = target: T3, recombinant human full-length TDP-43 …; experiment: Luminex, FL TDP-43 on beads
Description: Mice were euthanized and fusion with myeloma cells was performed using splenocytes from four individual mice. Screening for antibodies from the successfully fused hybridoma cell lines were performed as follows. Diluted (1:32) cell culture supernatants were analyzed using Luminex bead-based multiplex assay (Luminex, The Netherlands). Luminex beads were conjugated to FL TDP-43 and with capturing IgGs with anti-mouse IgG-Fc antibodies specific for the IgG1, IgG2a, IgG2b, IgG2c, and IgG3 subclasses (Jackson Immunoresearch, USA). Binding to beads conjugated to FL TDP-43 identified 386 hits derived from mice immunized with the FL TDP-43 liposomal vaccine.
Luminex assays with serial dilution of antibodies were performed as described before to determine half maximal effective concentration (EC50) of binding of antibodies to FL TDP-43. In summary, all tested antibodies bind to full length TDP-43 with high affinity.

[3] = target: T3, recombinant human full-length TDP-43 …; experiment: SPR, immobilized soluble TDP-43
Description: (§1) Binding avidity to soluble or aggregated FL TDP-43 was evaluated by determing the dissociation constants (KD) using surface plasmon resonance (SPR; Biacore T200, GE Healthcare Life Sciences). Recombinant human soluble or aggregated FL TDP-43 were immobilized on a CM5 Series S sensor chip (GE Healthcare Life Sciences) by amine coupling. Soluble TDP-43 was immobilized at a concentration of 5 µg/ml in 10 mM sodium acetate (pH 4.5) with a flow rate of 5 µl/min for 420 seconds resulting in an immobilization level of 150 RU. Aggregated TDP-43 was immobilized at a concentration of 50 µg/ml in 10 mM sodium acetate (pH 4.5) with a flow rate of 5 µl/min for 840 seconds resulting in an immobilization level of 110 RU. Biotinylated TP-73 peptide (aa 181-190 of SEQ ID NO:1) was immobilized on a Series S Sensor Chip SA (GE Healthcare Life Sciences) at a concentration of 5 µg/ml in PBS-P⁺ with a flow rate of 5 µl/min for 30 seconds resulting in an immobilization level of 400 RU. […] The antibodies were injected at a flow rate of 50 µl/min for 90 seconds contact time and 700 seconds dissociation phase followed by three regenerations with 10 mM glycine-HCl pH 1.7. For the optimized SPR protocol the antibodies were diluted 3-fold starting from 300 nM and dilute down to 1.2 nM and injected for 300 seconds at 30 µl/min followed by 600 seconds dissociation. The surface was regenerated by one injection with 10 mM glycine-HCl pH 1.7. Results obtained from binding kinetics were double-referenced using a blank flow cell and a buffer cycle and were evaluated with a global 1:1 fitting model with RI. Avidities for 11 antibodies and two Fab fragments are depicted in Table 8. […] In addition, some antibodies show preferential binding to aggregated TDP-43 as compared with soluble TDP-43.

[4] = target: T1, Biotinylated TP-73 peptide (aa 181-190 …); experiment: SPR, biotinylated TP-73 on SA chip
Description: Binding avidity to soluble or aggregated FL TDP-43 was evaluated by determing the dissociation constants (KD) using surface plasmon resonance (SPR; Biacore T200, GE Healthcare Life Sciences). Recombinant human soluble or aggregated FL TDP-43 were immobilized on a CM5 Series S sensor chip (GE Healthcare Life Sciences) by amine coupling. Soluble TDP-43 was immobilized at a concentration of 5 µg/ml in 10 mM sodium acetate (pH 4.5) with a flow rate of 5 µl/min for 420 seconds resulting in an immobilization level of 150 RU. Aggregated TDP-43 was immobilized at a concentration of 50 µg/ml in 10 mM sodium acetate (pH 4.5) with a flow rate of 5 µl/min for 840 seconds resulting in an immobilization level of 110 RU. Biotinylated TP-73 peptide (aa 181-190 of SEQ ID NO:1) was immobilized on a Series S Sensor Chip SA (GE Healthcare Life Sciences) at a concentration of 5 µg/ml in PBS-P⁺ with a flow rate of 5 µl/min for 30 seconds resulting in an immobilization level of 400 RU. […] The antibodies were injected at a flow rate of 50 µl/min for 90 seconds contact time and 700 seconds dissociation phase followed by three regenerations with 10 mM glycine-HCl pH 1.7. […] Results obtained from binding kinetics were double-referenced using a blank flow cell and a buffer cycle and were evaluated with a global 1:1 fitting model with RI. […]

[5] = target: T3, recombinant human full-length TDP-43 …; experiment: SPR, mAb captured, FL TDP-43 injected; mean
Description: Binding affinity to soluble FL TDP-43 was evaluated by determing the dissociation constants (KD) using surface plasmon resonance (SPR; Biacore T200, GE Healthcare Life Sciences). Goat-anti mouse capture antibody was immobilized on a CM5 Series S sensor chip (GE Healthcare Life Sciences) by amine coupling. Antibodies were captured at a concentration of 2-5 µg/ml in PBS-P⁺ (GE Healthcare Life Sciences) with a flow rate of 10 µl/min for 120 seconds resulting in a capture level of 350-1000 RU. […] Dissociation was recorded for 1 h followed by one regeneration with 10 mM glycine-HCl pH 1.7. Results obtained from binding kinetics were double-referenced using a blank flow cell and a buffer cycle and were evaluated with a global 1:1 fitting model with RI.

[6] = target: T4, recombinant human aggregated full-length TDP-43 (human, UniProt Q13148 1-414); experiment: SPR, immobilized aggregated TDP-43
T4 construct: also called aggregated TDP-43; aggregated FL TDP-43
Description: as §1

[7] = target: T2, TP-51 peptide (aa 352-414 of SEQ ID …); experiment: SPR, mAb captured, TP-51 injected; mean
[8] = target: T2, TP-51 peptide (aa 352-414 of SEQ ID …); experiment: SPR, mAb captured, TP-51 injected
[9] = target: T3, recombinant human full-length TDP-43 …; experiment: SPR, immobilized soluble TDP-43; whole hybridoma antibody, first SPR protocol (90 s contact); soluble TDP-43 on the chip

T3 sequence (Q13148 whole entry): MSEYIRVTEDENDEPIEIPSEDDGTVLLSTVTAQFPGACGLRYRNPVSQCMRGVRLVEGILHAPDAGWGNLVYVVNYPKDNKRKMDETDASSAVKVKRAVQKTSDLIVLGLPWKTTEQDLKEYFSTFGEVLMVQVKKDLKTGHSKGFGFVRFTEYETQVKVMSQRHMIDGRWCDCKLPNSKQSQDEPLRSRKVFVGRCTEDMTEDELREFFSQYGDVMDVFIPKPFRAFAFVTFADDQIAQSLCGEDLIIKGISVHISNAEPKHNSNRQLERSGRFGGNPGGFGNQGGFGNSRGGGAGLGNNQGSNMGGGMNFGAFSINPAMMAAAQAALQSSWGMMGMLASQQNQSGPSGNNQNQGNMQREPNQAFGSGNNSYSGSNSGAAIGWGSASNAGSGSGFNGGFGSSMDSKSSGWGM
T4 sequence (Q13148 whole entry): as above

Binder | EC50 [1] | EC50 [2] | Kd [3] | koff [3] | kon [3] | Kd [4] | Kd [5] | koff [5] | kon [5] | Kd [6] | koff [6] | kon [6] | Kd [7] | koff [7] | kon [7] | Kd [8] | Kd [9]
B1 | 0.014 µg/mL | < 0.01 nM | 5.28 nM | 0.000838 s⁻¹ | 159000 M⁻¹ s⁻¹ | 3.6 nM | 0.249 nM | 2.76e-05 s⁻¹ | 110000 M⁻¹ s⁻¹ | 0.88 nM | 0.000131 s⁻¹ | 148000 M⁻¹ s⁻¹ | – | – | – | – | –
B2 | 0.032 µg/mL | < 0.01 nM | – | 0.000319 s⁻¹ | 873 M⁻¹ s⁻¹ | – | 0.075 nM | 3.45e-06 s⁻¹ | 43900 M⁻¹ s⁻¹ | 0.62 nM | 5.01e-05 s⁻¹ | 82100 M⁻¹ s⁻¹ | 1.25 nM | 0.000138 s⁻¹ | 110000 M⁻¹ s⁻¹ | 1.18 to 1.32 nM | 365 nM
